For the data set, the system named is Escherichia coli TOP10. Kind of data set: shrunken log2 fold change of peptide-encoding DNA abundance (4.5 h post-induction vs induction); higher = less antimicrobial activity (less host growth inhibition). As to conditions: time post-induction: 4.5 h; library: site-saturation at positions 5, 18, 19, 20.
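Note: peptides expressed intracellularly from a pBAD plasmid library in pooled LB shake-flask culture, induced with 0.3% L-arabinose, DNA abundance read by NGS, three biological replicates, DESeq2 with apeglm shrinkage.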

Turning to RRIRSRPPRLPRPRPRPNWTPRP, the “shrunken log2 fold change” value was -0.000246.

Consider RRIRCRPPRLPRPRPRPPDKPRP, for which the “shrunken log2 fold change” value is 0.0264.

Turning to RRIRIRPPRLPRPRPRPLAFPRP, the “shrunken log2 fold change” value was -0.302.

On to RRIRCRPPRLPRPRPRPPADPRP, for which the “shrunken log2 fold change” value was determined as 0.95.

For RRIRWRPPRLPRPRPRPGQHPRP, the “shrunken log2 fold change” value was -0.172.

For RRIRHRPPRLPRPRPRPKWLPRP, the “shrunken log2 fold change” value amounted to 0.333.

On to RRIRLRPPRLPRPRPRPIHKPRP, for which the “shrunken log2 fold change” value came to 0.195.

With RRIRCRPPRLPRPRPRPDSCPRP, the “shrunken log2 fold change” value worked out at 0.0373.

Turning to RRIRARPPRLPRPRPRPDLHPRP, the “shrunken log2 fold change” value amounted to 0.474.

As for RRIRCRPPRLPRPRPRPNLRPRP, the “shrunken log2 fold change” value was -0.315.

For RRIRERPPRLPRPRPRPGMCPRP, the “shrunken log2 fold change” value is 0.248.

RRIRKRPPRLPRPRPRPFIQPRP: the “shrunken log2 fold change” value worked out at 0.0388.

For RRIRWRPPRLPRPRPRPNDAPRP, the “shrunken log2 fold change” value was 0.0398.

With RRIRTRPPRLPRPRPRPVSVPRP, the “shrunken log2 fold change” value is -0.0287.

RRIRLRPPRLPRPRPRPNEGPRP: the “shrunken log2 fold change” value was 0.00337.

As for RRIRCRPPRLPRPRPRPASTPRP, the “shrunken log2 fold change” value is -0.481.

For the sequence RRIRGRPPRLPRPRPRPCSEPRP, the “shrunken log2 fold change” value stood at 0.0744.

As for RRIRKRPPRLPRPRPRPVDIPRP, the “shrunken log2 fold change” value is -0.0337.

For RRIRLRPPRLPRPRPRPCARPRP, the “shrunken log2 fold change” value came to 0.0322.

Take RRIRARPPRLPRPRPRPIRVPRP: the “shrunken log2 fold change” value worked out at 0.125.

On to RRIRFRPPRLPRPRPRPNSKPRP, for which the “shrunken log2 fold change” value was -0.464.

RRIRMRPPRLPRPRPRPDCLPRP: the “shrunken log2 fold change” value is 1.54.

RRIRWRPPRLPRPRPRPCVSPRP: the “shrunken log2 fold change” value amounted to 0.144.

Consider RRIRTRPPRLPRPRPRPHFSPRP, for which the “shrunken log2 fold change” value is 0.0329.

On to RRIRNRPPRLPRPRPRPELMPRP, for which the “shrunken log2 fold change” value came to 0.232.

In the case of RRIRPRPPRLPRPRPRPVNLPRP, the “shrunken log2 fold change” value is -0.136.

RRIRCRPPRLPRPRPRPLNAPRP: the “shrunken log2 fold change” value was -0.255.

Regarding RRIRVRPPRLPRPRPRPWPQPRP, the “shrunken log2 fold change” value stood at 0.104.

As for RRIRSRPPRLPRPRPRPANNPRP, the “shrunken log2 fold change” value is -0.367.

Consider RRIRMRPPRLPRPRPRPVEIPRP, for which the “shrunken log2 fold change” value is 0.00438.

Regarding RRIRARPPRLPRPRPRPLMYPRP, the “shrunken log2 fold change” value is -0.165.

For RRIRERPPRLPRPRPRPMSLPRP, the “shrunken log2 fold change” value was 0.0379.

Turning to RRIRSRPPRLPRPRPRPWKTPRP, the “shrunken log2 fold change” value was -0.0527.

Regarding RRIRHRPPRLPRPRPRPMGAPRP, the “shrunken log2 fold change” value was 0.0492.

As for RRIRWRPPRLPRPRPRPQQHPRP, the “shrunken log2 fold change” value is -0.056.

For RRIRWRPPRLPRPRPRPICWPRP, the “shrunken log2 fold change” value came to 0.646.

Regarding RRIRIRPPRLPRPRPRPIDNPRP, the “shrunken log2 fold change” value was -0.0769.

RRIRFRPPRLPRPRPRPWGTPRP: the “shrunken log2 fold change” value is -0.131.

Take RRIRFRPPRLPRPRPRPALHPRP: the “shrunken log2 fold change” value was -0.0349.

Turning to RRIRERPPRLPRPRPRPNSRPRP, the “shrunken log2 fold change” value is -0.481.

As for RRIRLRPPRLPRPRPRPLPGPRP, the “shrunken log2 fold change” value amounted to 0.781.

For the sequence RRIRNRPPRLPRPRPRPYCVPRP, the “shrunken log2 fold change” value was -0.172.

For the sequence RRIRLRPPRLPRPRPRPCPVPRP, the “shrunken log2 fold change” value is -0.393.

Take RRIRARPPRLPRPRPRPNETPRP: the “shrunken log2 fold change” value is 0.0696.

For the sequence RRIRTRPPRLPRPRPRPYDMPRP, the “shrunken log2 fold change” value is 0.0197.

With RRIRSRPPRLPRPRPRPFQRPRP, the “shrunken log2 fold change” value worked out at 0.101.

Turning to RRIRRRPPRLPRPRPRPLRPPRP, the “shrunken log2 fold change” value amounted to 1.18.

Regarding RRIRDRPPRLPRPRPRPRKNPRP, the “shrunken log2 fold change” value worked out at 0.244.

As for RRIRWRPPRLPRPRPRPQPYPRP, the “shrunken log2 fold change” value is -0.166.

Turning to RRIRKRPPRLPRPRPRPAFIPRP, the “shrunken log2 fold change” value came out at 0.129.

As to RRIRFRPPRLPRPRPRPDVDPRP, the “shrunken log2 fold change” value was 0.0167.

On to RRIRTRPPRLPRPRPRPVSWPRP, for which the “shrunken log2 fold change” value came out at 0.522.

In the case of RRIRRRPPRLPRPRPRPLNPPRP, the “shrunken log2 fold change” value is -0.00196.

Take RRIRHRPPRLPRPRPRPAGSPRP: the “shrunken log2 fold change” value was -0.0875.

In the case of RRIRYRPPRLPRPRPRPIKLPRP, the “shrunken log2 fold change” value was -0.126.

With RRIRRRPPRLPRPRPRPIYQPRP, the “shrunken log2 fold change” value stood at 2.25.

Turning to RRIRARPPRLPRPRPRPWKVPRP, the “shrunken log2 fold change” value is -0.279.

For RRIRIRPPRLPRPRPRPFWHPRP, the “shrunken log2 fold change” value is -0.275.

As to RRIRTRPPRLPRPRPRPFVQPRP, the “shrunken log2 fold change” value is -0.177.

RRIRPRPPRLPRPRPRPFFAPRP: the “shrunken log2 fold change” value stood at 0.468.

As to RRIRYRPPRLPRPRPRPVLFPRP, the “shrunken log2 fold change” value was -0.598.

As for RRIRHRPPRLPRPRPRPDNQPRP, the “shrunken log2 fold change” value was -0.0673.

On to RRIRWRPPRLPRPRPRPYGTPRP, for which the “shrunken log2 fold change” value was -0.232.

For the sequence RRIRYRPPRLPRPRPRPMGRPRP, the “shrunken log2 fold change” value was -0.117.

Turning to RRIRFRPPRLPRPRPRPSSKPRP, the “shrunken log2 fold change” value was -0.32.

As to RRIRLRPPRLPRPRPRPWPAPRP, the “shrunken log2 fold change” value came out at 0.0194.

Turning to RRIRYRPPRLPRPRPRPWRDPRP, the “shrunken log2 fold change” value is -0.0075.

As to RRIRWRPPRLPRPRPRPDSTPRP, the “shrunken log2 fold change” value is -0.0382.

In the case of RRIRARPPRLPRPRPRPKAAPRP, the “shrunken log2 fold change” value was 0.878.

As for RRIRIRPPRLPRPRPRPTPLPRP, the “shrunken log2 fold change” value was 0.245.

Turning to RRIRRRPPRLPRPRPRPYHGPRP, the “shrunken log2 fold change” value was -0.169.

Consider RRIRMRPPRLPRPRPRPKYVPRP, for which the “shrunken log2 fold change” value is -0.0144.

With RRIRDRPPRLPRPRPRPVDFPRP, the “shrunken log2 fold change” value came to 0.0775.

As to RRIRDRPPRLPRPRPRPGYIPRP, the “shrunken log2 fold change” value is -0.304.

Take RRIRPRPPRLPRPRPRPAPCPRP: the “shrunken log2 fold change” value amounted to 0.236.

On to RRIRYRPPRLPRPRPRPRESPRP, for which the “shrunken log2 fold change” value turned out to be 0.0662.

As to RRIRWRPPRLPRPRPRPKMFPRP, the “shrunken log2 fold change” value is -0.0838.

In the case of RRIRMRPPRLPRPRPRPTTWPRP, the “shrunken log2 fold change” value was 0.745.

As for RRIRLRPPRLPRPRPRPCISPRP, the “shrunken log2 fold change” value was -0.177.

Consider RRIRKRPPRLPRPRPRPCVVPRP, for which the “shrunken log2 fold change” value was 0.0713.

With RRIRFRPPRLPRPRPRPQYKPRP, the “shrunken log2 fold change” value was -0.755.

For the sequence RRIRKRPPRLPRPRPRPQMCPRP, the “shrunken log2 fold change” value was -0.0359.

For RRIRLRPPRLPRPRPRPPFMPRP, the “shrunken log2 fold change” value turned out to be 0.086.

Turning to RRIRKRPPRLPRPRPRPTSNPRP, the “shrunken log2 fold change” value stood at 0.161.

For the sequence RRIRFRPPRLPRPRPRPETVPRP, the “shrunken log2 fold change” value is 0.0039.

For RRIRVRPPRLPRPRPRPGAIPRP, the “shrunken log2 fold change” value came out at 0.0707.

On to RRIRFRPPRLPRPRPRPRTTPRP, for which the “shrunken log2 fold change” value was 0.299.

As to RRIRCRPPRLPRPRPRPHGQPRP, the “shrunken log2 fold change” value worked out at 0.0389.

For RRIRWRPPRLPRPRPRPGIIPRP, the “shrunken log2 fold change” value is -0.0357.

In the case of RRIRQRPPRLPRPRPRPCVFPRP, the “shrunken log2 fold change” value was -0.049.

Turning to RRIRNRPPRLPRPRPRPFLPPRP, the “shrunken log2 fold change” value was -0.354.

Regarding RRIRYRPPRLPRPRPRPDFNPRP, the “shrunken log2 fold change” value is -1.62.

In the case of RRIRLRPPRLPRPRPRPWWFPRP, the “shrunken log2 fold change” value is -0.21.

As for RRIRNRPPRLPRPRPRPWWRPRP, the “shrunken log2 fold change” value was -0.0647.

For RRIRIRPPRLPRPRPRPSFYPRP, the “shrunken log2 fold change” value is -0.776.

Consider RRIRPRPPRLPRPRPRPTDYPRP, for which the “shrunken log2 fold change” value is -0.132.

For RRIRTRPPRLPRPRPRPHIQPRP, the “shrunken log2 fold change” value was -0.0986.

In the case of RRIRDRPPRLPRPRPRPAMLPRP, the “shrunken log2 fold change” value turned out to be 0.278.

Take RRIRLRPPRLPRPRPRPFFGPRP: the “shrunken log2 fold change” value amounted to 0.246.

Consider RRIRMRPPRLPRPRPRPMWFPRP, for which the “shrunken log2 fold change” value came to 0.233.

RRIRRRPPRLPRPRPRPMCLPRP: the “shrunken log2 fold change” value came out at 0.0511.

For RRIRDRPPRLPRPRPRPQENPRP, the “shrunken log2 fold change” value came out at 0.0153.

Turning to RRIRSRPPRLPRPRPRPNSNPRP, the “shrunken log2 fold change” value is -0.857.

Turning to RRIRRRPPRLPRPRPRPPEEPRP, the “shrunken log2 fold change” value worked out at 1.37.

Consider RRIRGRPPRLPRPRPRPRIMPRP, for which the “shrunken log2 fold change” value worked out at 0.506.

For the sequence RRIRLRPPRLPRPRPRPDKMPRP, the “shrunken log2 fold change” value is -0.121.

As to RRIRHRPPRLPRPRPRPKHPPRP, the “shrunken log2 fold change” value is -0.0271.

For the sequence RRIRKRPPRLPRPRPRPTECPRP, the “shrunken log2 fold change” value was found to be 0.119.

For RRIRQRPPRLPRPRPRPTGLPRP, the “shrunken log2 fold change” value stood at 0.0999.

Regarding RRIRMRPPRLPRPRPRPHIPPRP, the “shrunken log2 fold change” value is -0.289.

As to RRIRPRPPRLPRPRPRPRIHPRP, the “shrunken log2 fold change” value was -0.00548.

With RRIRRRPPRLPRPRPRPHPYPRP, the “shrunken log2 fold change” value was -0.069.

For the sequence RRIRPRPPRLPRPRPRPPATPRP, the “shrunken log2 fold change” value was 0.939.

As to RRIRDRPPRLPRPRPRPPPYPRP, the “shrunken log2 fold change” value is -0.0814.

As to RRIRGRPPRLPRPRPRPRRYPRP, the “shrunken log2 fold change” value came to 0.0823.

RRIRTRPPRLPRPRPRPLEPPRP: the “shrunken log2 fold change” value worked out at 0.021.

For the sequence RRIRHRPPRLPRPRPRPGEKPRP, the “shrunken log2 fold change” value is -0.102.

For RRIRRRPPRLPRPRPRPWCQPRP, the “shrunken log2 fold change” value is -0.26.

For RRIRGRPPRLPRPRPRPELLPRP, the “shrunken log2 fold change” value was 0.334.

With RRIRLRPPRLPRPRPRPIKPPRP, the “shrunken log2 fold change” value came to 0.0261.

Consider RRIRKRPPRLPRPRPRPTYNPRP, for which the “shrunken log2 fold change” value was -0.0201.

Turning to RRIRERPPRLPRPRPRPSGFPRP, the “shrunken log2 fold change” value was 0.0785.

Turning to RRIRQRPPRLPRPRPRPPEFPRP, the “shrunken log2 fold change” value was found to be 0.0335.

With RRIRRRPPRLPRPRPRPCVPPRP, the “shrunken log2 fold change” value was -0.149.

On to RRIRFRPPRLPRPRPRPLCHPRP, for which the “shrunken log2 fold change” value is -0.271.

(Values after the supplement of paper PMC9112550, “Optimization of the antimicrobial peptide Bac7 by deep mutational scanning” (BMC Biology, 2022).)
